Experimental data reported in publication PMC3326525 (Nature structural & molecular biology, 2011).
Numbering of substitutions follows the chain as printed. Numbers in names are those of the source. Read-outs that look alike come from different tables or passages of the source.

Columns and labels:
[1] = target: T1, ECFP-RNF4 (wild-type) (Rattus norvegicus, UniProt O88846 1-194); test: FRET or BRET
T1 sequence: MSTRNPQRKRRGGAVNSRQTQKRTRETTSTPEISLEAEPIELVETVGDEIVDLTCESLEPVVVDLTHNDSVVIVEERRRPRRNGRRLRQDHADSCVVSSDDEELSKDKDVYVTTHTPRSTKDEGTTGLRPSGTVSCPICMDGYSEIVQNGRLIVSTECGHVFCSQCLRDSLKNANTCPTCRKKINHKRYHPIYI

[2] = target: T1, ECFP-RNF4 (wild-type); test: FRET or BRET; remark: listed apart in the source
[3] = target: T2, MBP-RNF4 (wild-type) (Rattus norvegicus, UniProt O88846 1-194); test: pull-down
T2 sequence: T1 sequence

[4] = target: the molecule itself

B1: RNF4 Y193H (natural protein)
chain: T1 sequence with Y193H
Q: Does B1 bind [1]?
A: binds

B2: YFP-RING domain of RNF4 (wild-type) (domain or fragment)
chain: VSCPICMDGYSEIVQNGRLIVSTECGHVFCSQCLRDSLKNANTCPTCRKKINHKRYHPIYI
Q: Does B2 bind [1]?
A: binds

B3: YFP-RING M140A R181A (domain or fragment)
chain: B2 chain with M7A, R48A
Q: Does B3 bind [2]?
A: binds

B4: UbcH5a (N77A C85S)~Ub oxyester (complex)
chain 1: not shown
chain 2: […]
Q: Does B4 bind [3]?
A: binds

B5: RNF4 L152A (natural protein)
chain: T1 sequence with L152A
Q: Which “stoichiometry N” value [4] does the source give for B5 here?
A: 2
